Experimental data as given in patent US20080281082 (published 2008).
Numbering of substitutions follows the chain as printed.

B1: humanized 3D6v2 (antibody, V domains shown)
VH: EVQLLESGGGLVQPGGSLRLSCAASGFTFSNYGMSWVRQAPGKGLEWVASIRSGGGRTYYSDNVKGRFTISRDNSKNTLYLQMNSLRAEDTAVYYCVRYDHYSGSSDYWGQGTLVTVSS
VL: DVVMTQSPLSLPVTPGEPASISCKSSQSLLDSDGKTYLNWLLQKPGQSPQRLIYLVSKLDSGVPDRFSGSGSGTDFTLKISRVEAEDVGVYYCWQGTHFPRTFGQGTKVEIK
B2: humanized 3D6v1 (antibody, V domains shown)
VH: B1 VH with S75A, T78S, V93L
VL: B1 VL with D1Y

Molecular target: Aβ (beta amyloid peptide) (human)
Assay: SPR

Binder | Kd [nM]
B1 | 2.24
B2 | 2.06
